In one assay the target is TrkB (h) (Homo sapiens, UniProt Q16620). The assay is described as follows: Millipore radiometric kinase assay (IC50 Profiler Express / kinase profiling). Type of assay: biochemical. As to conditions: TrkB(h); 100 μM. From the text: (§1) Specifically, in these assays, a positively charged substrate is phosphorylated with a radiolabeled phosphate group from an ATP if the kinase is not inhibited by an inhibitor peptide. The positively charged substrate then is attracted to a negatively charged filter membrane, quantified with a scintillation counter, and compared to a 100% activity control.

The next assay has as its target MAPKAP-K2 (h) (Homo sapiens, UniProt P49137). Described as above. Type of assay: biochemical. As to conditions: MAPKAP-K2(h); 100 μM.
Source text: as §1

The target of another assay is MAPKAP-K3 (h) (Homo sapiens, UniProt Q16644). Described as above. Type of assay: biochemical. As to conditions: MAPKAP-K3(h); 100 μM.
Sequence of MAPKAP-K3 (h) (Q16644 whole entry): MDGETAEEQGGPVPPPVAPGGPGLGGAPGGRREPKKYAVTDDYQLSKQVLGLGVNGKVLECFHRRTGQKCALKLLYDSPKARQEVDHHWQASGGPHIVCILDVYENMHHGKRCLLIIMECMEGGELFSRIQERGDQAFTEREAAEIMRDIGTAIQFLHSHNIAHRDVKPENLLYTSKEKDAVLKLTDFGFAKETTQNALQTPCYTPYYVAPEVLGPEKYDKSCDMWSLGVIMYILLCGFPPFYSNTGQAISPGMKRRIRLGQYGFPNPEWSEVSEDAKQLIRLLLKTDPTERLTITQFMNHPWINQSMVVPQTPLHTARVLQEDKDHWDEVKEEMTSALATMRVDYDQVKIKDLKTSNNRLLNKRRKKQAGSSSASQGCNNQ
Source text: as §1

Another assay concerns the target LOK (h) (Homo sapiens, UniProt O94804). The assay is described as follows: Millipore radiometric kinase assay (IC50 Profiler Express). Type of assay: biochemical. As to conditions: LOK(h); 100 μM.
Source text: as §1

The target in a further assay is EGFR (L861Q) (h) (Homo sapiens, UniProt P00533, L861Q). The assay is described as above. Type of assay: biochemical. As to conditions: EGFR(L861Q)(h); 100 μM.
Source text: as §1

The target of another assay is T1, DMPK (h) (Homo sapiens, UniProt Q09013).
T1 sequence (Q09013 1-629): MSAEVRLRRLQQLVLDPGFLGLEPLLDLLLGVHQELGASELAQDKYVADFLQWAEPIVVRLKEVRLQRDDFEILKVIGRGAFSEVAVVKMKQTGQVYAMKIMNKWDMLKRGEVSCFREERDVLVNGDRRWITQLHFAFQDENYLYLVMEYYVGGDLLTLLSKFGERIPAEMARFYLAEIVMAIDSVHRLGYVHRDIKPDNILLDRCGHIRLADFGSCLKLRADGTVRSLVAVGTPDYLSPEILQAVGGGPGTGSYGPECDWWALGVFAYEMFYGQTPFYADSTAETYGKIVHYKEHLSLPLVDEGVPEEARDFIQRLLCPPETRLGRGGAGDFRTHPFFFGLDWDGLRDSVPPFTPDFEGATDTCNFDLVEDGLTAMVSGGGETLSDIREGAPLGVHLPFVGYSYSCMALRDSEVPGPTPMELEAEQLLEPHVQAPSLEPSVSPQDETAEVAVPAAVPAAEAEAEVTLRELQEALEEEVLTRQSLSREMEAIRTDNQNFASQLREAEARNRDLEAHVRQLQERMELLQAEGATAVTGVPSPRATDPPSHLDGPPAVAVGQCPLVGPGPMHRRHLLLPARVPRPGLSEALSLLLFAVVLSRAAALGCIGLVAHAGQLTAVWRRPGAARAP
The description is as above. As to conditions: DMPK(h); 100 μM. Type of assay: biochemical.
Source text: as §1

A further assay has as its target T2, DRAK1 (h) (Homo sapiens, UniProt Q9UEE5).
T2 sequence (Q9UEE5 1-414): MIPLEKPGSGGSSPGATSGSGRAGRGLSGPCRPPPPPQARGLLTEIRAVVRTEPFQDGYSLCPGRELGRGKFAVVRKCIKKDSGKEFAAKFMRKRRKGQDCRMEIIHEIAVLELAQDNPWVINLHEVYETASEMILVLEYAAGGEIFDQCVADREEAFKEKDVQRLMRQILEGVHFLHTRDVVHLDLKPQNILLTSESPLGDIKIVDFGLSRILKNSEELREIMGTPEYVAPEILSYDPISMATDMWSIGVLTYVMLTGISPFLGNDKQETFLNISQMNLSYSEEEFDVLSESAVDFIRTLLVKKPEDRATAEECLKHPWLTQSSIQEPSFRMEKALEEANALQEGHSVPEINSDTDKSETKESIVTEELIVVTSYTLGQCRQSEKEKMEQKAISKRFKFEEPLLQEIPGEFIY
The description is as above. Type of assay: biochemical. The conditions noted are these: DRAK1(h); 100 μM.
Source text: as §1

Assay [1] concerns the target 266 human kinases (Homo sapiens, UniProt P00533, L858R/T790M). In words: biochemical. Type of assay: biochemical. As to conditions: EGFR(T790M,L858R)(h); 100 μM.
Source text: as §1

Assay [2] deals with 266 human kinases (Homo sapiens, UniProt P08069). In words: biochemical. Type of assay: biochemical. The conditions noted are these: IGF-1R(h), 100 μM.
Source text: as §1

The target in a further assay is CaMKI (h) (Homo sapiens, UniProt Q14012). The assay is described as follows: biochemical. As to conditions: CaMKI(h); 100 μM.
Sequence of CaMKI (h) (Q14012 whole entry): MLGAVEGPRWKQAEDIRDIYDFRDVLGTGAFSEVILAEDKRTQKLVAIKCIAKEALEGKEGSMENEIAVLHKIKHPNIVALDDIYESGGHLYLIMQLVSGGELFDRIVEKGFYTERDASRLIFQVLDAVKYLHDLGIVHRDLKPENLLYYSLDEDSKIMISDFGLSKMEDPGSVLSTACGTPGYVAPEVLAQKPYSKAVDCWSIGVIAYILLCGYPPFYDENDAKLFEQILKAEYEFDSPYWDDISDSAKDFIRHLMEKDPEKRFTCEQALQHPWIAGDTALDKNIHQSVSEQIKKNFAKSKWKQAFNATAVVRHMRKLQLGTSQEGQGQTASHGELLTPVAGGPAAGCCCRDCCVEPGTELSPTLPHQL
Source text: as §1

A further assay has as its target MSK1 (h) (Homo sapiens, UniProt O75582). In words: biochemical. As to conditions: MSK1(h); 100 μM.
Source text: as §1

Another assay addresses CaMK1δ (h) (Homo sapiens, UniProt Q8IU85). In words: biochemical. The conditions noted are these: CaMKIδ(h); 100 μM.
Source text: as §1

A further assay deals with FGFR2 (h) (Homo sapiens, UniProt P21802). In words: biochemical. The conditions noted are these: FGFR2(h); 100 μM.
Source text: as §1

The target in the next assay is Fes(h) (Homo sapiens, UniProt P07332). The assay is described as follows: biochemical. As to conditions: 100 μM.
Sequence of Fes(h) (P07332 whole entry): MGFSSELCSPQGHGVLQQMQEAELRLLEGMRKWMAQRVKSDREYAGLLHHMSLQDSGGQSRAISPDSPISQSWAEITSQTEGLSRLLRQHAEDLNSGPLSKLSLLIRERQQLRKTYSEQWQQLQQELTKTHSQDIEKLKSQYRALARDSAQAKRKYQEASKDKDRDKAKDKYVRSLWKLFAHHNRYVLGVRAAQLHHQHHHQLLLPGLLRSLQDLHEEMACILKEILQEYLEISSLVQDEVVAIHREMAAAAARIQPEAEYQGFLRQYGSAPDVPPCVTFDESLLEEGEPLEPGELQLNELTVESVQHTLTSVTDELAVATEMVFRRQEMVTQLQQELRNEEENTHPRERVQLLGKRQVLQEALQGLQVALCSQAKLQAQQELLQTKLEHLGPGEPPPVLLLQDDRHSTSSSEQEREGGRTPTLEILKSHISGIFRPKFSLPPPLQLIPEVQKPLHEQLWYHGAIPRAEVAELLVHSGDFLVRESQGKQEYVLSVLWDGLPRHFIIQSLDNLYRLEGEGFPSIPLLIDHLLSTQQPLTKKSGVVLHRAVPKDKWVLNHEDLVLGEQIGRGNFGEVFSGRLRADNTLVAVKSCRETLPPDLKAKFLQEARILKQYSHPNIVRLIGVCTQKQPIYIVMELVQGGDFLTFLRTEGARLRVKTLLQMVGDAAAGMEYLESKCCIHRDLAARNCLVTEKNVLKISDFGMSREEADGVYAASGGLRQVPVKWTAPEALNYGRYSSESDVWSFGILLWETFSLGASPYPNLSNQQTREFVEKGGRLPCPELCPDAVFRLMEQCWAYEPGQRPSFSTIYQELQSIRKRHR
Source text: as §1

Another assay concerns the target Pim-1 (h) (Homo sapiens, UniProt P11309). In words: biochemical. As to conditions: Pim-1(h); 100 μM.
Source text: as §1

Sequence of CaMK1δ (h) (Q8IU85 whole entry): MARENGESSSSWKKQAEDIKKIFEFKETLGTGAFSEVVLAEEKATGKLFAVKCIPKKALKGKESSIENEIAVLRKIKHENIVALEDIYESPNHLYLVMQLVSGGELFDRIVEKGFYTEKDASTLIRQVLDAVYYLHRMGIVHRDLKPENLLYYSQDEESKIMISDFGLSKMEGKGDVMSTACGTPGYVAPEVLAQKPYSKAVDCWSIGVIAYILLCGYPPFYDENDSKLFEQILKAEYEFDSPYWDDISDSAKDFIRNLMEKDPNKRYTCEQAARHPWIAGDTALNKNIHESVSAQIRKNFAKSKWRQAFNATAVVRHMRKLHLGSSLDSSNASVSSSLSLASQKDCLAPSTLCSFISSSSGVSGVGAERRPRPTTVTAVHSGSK
Sequence of Pim-1 (h) (P11309 whole entry): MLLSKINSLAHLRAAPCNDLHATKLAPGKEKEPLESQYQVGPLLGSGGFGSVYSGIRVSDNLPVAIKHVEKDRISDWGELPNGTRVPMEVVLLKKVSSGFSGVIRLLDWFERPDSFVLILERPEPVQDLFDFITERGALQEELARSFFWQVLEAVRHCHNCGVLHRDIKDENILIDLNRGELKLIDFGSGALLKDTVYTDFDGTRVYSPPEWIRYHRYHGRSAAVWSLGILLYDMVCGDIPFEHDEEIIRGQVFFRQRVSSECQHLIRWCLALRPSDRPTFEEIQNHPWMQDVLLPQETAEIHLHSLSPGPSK
Sequence of MSK1 (h) (O75582 whole entry): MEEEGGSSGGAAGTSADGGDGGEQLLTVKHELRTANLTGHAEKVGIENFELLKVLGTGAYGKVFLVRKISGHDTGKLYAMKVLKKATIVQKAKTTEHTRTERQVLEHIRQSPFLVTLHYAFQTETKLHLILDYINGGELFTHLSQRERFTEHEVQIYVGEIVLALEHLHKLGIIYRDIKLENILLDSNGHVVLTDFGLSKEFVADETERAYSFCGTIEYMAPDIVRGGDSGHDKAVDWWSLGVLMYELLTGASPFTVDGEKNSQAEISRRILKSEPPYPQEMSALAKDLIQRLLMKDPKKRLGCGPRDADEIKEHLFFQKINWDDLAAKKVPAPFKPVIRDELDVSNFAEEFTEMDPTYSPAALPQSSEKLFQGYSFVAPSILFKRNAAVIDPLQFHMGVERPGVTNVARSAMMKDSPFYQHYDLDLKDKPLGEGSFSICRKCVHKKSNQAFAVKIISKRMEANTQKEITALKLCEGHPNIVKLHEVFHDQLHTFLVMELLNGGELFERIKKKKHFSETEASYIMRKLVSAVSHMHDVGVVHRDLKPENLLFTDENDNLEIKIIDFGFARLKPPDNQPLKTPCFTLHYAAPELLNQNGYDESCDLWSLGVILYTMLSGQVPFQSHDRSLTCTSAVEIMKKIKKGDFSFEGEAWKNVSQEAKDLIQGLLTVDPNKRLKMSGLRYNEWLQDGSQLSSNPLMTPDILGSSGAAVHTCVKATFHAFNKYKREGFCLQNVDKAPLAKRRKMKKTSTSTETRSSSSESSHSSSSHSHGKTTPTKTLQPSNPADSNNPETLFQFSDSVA
Sequence of LOK (h) (O94804 whole entry): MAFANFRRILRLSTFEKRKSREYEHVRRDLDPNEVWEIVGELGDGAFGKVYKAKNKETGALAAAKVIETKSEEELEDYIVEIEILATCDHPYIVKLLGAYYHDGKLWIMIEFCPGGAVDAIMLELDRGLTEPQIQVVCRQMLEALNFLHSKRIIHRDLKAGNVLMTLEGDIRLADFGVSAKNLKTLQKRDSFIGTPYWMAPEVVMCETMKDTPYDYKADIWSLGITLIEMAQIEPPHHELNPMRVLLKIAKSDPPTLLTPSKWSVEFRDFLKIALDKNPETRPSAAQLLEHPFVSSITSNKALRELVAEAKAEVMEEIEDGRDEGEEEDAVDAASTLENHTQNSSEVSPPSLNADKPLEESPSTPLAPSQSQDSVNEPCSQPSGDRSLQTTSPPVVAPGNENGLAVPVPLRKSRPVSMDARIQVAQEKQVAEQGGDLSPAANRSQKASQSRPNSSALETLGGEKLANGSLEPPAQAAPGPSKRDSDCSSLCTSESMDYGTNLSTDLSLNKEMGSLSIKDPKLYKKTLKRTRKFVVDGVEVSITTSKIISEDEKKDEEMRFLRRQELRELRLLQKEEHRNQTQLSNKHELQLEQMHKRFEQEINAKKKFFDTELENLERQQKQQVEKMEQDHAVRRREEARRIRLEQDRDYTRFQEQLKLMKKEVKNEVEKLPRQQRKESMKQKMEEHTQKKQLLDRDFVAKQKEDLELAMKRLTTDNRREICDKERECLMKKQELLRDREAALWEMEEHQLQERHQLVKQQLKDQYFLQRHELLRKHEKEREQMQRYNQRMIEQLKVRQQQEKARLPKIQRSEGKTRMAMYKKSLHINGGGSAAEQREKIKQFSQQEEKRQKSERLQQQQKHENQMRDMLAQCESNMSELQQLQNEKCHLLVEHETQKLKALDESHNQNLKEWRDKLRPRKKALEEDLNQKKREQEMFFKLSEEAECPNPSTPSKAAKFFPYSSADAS
Sequence of MAPKAP-K2 (h) (P49137 whole entry): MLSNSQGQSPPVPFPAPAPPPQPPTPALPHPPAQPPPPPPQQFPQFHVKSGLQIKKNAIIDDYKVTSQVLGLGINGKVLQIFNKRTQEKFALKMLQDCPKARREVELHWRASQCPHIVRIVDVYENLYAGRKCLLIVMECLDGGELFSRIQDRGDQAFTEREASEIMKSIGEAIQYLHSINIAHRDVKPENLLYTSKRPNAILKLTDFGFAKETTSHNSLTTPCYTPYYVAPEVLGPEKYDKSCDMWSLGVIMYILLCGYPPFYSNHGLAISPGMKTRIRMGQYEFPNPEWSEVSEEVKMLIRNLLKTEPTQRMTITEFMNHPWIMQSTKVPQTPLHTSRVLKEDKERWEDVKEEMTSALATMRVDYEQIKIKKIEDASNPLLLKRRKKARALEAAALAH

Consider “HRRIKAWLKKIKALARQLGVAA (mammal) [MMI-0500]”, for which the “% activity” value with TrkB (h) was found to be 12%; with MAPKAP-K2 (h) it was 9%; with MAPKAP-K3 (h), 9%; with LOK (h), 7%; with EGFR (L861Q) (h), 15%; in the assay with DMPK (h), 12%. In addition, the “% activity” value with DRAK1 (h) is recorded as 8%; with 266 human kinases [1], 53%; with 266 human kinases [2] (activated) it was 45%; in the assay with CaMKI (h), −1%; in the assay with MSK1 (h) it was 8%; with CaMK1δ (h), 0%. The “% activity” value in the assay with FGFR2 (h) amounted to 12%; in the assay with Fes(h), 23%; with Pim-1 (h), 0%.

As to “YARAAARQARAKALNRQLGVA (mammal) [MMI-0200]”, the “% activity” value amounted to 7% with TrkB (h); 35% with MAPKAP-K2 (h); 39% in the assay with MAPKAP-K3 (h); 67% with LOK (h); 74% with EGFR (L861Q) (h); 66% with DMPK (h). For the same sequence, the “% activity” value with DRAK1 (h) worked out at 34%; in the assay with 266 human kinases [1], 108%; in the assay with 266 human kinases [2] (activated), 94%; with 266 human kinases [2], 49%; with CaMKI (h), 21%; with MSK1 (h), 50%. Further, the “% activity” value is on record as 47% with CaMK1δ (h), 73% in the assay with FGFR2 (h), 74% with Fes(h) and 18% with Pim-1 (h).
